# According to patent US20200109196A1 (MOGAM INSTITUTE FOR BIOMEDICAL RESEARCH, published 2020):
# T1: recombinant human CEACAM-1/CD66a protein Bulk (R&D systems; Cat. No. 2244-CM) (human, UniProt P13688 35-428)
# T1 construct: Same catalogue number as HCCM1, coated as a separate antigen ('bulk'); also called HCCM1 (bulk)
# T1 sequence (looked up): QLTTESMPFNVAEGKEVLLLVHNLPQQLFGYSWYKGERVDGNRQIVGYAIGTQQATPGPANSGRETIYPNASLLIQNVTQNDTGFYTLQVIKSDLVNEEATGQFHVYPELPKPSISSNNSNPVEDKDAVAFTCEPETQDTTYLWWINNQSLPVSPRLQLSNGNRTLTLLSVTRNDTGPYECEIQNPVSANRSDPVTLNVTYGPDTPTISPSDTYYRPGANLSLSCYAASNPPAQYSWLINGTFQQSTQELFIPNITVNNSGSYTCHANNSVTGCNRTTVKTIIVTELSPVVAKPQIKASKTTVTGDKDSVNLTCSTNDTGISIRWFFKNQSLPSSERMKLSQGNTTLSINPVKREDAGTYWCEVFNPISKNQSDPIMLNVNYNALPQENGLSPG
# T2: recombinant human CEACAM-5/CD66e protein (R&D systems; Cat. No. 4128-CM) (human, UniProt P06731 35-685)
# T2 construct: Bought protein; also called HCCM5
# T2 sequence (looked up): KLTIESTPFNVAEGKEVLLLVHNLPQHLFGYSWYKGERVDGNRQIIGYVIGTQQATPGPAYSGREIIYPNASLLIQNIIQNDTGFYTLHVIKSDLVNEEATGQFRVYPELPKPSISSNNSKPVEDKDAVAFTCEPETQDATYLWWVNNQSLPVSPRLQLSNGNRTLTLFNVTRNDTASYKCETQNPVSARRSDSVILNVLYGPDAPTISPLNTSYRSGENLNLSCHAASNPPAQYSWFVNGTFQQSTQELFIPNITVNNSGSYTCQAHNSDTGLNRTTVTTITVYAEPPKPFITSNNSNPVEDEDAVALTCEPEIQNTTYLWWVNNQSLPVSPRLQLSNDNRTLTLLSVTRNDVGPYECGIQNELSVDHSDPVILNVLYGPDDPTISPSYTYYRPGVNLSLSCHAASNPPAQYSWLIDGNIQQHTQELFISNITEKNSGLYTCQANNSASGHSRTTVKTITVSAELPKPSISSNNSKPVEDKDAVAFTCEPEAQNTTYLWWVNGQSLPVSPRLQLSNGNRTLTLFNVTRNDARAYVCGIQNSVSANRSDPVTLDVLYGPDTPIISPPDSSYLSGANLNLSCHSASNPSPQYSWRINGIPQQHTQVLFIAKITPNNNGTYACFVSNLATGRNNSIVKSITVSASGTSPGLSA
# T3: recombinant human CEACAM-3/CD66d protein (Sino Biological; Cat. No. 11933-H08H) (human, UniProt P40198 35-155)
# T3 construct: Bought protein; also called HCCM3
# T3 sequence (looked up): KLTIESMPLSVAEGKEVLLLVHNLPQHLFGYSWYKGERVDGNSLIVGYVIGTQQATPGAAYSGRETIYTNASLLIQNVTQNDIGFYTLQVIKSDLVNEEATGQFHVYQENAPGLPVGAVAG
# Key:
# [1] = biological target: T1, recombinant human CEACAM-1/CD66a …; test: ELISA, coated antigen, anti-human IgG Fab-HRP
# [2] = biological target: T2, recombinant human CEACAM-5/CD66e …; test: ELISA on coated antigen (0.25 µg/ml), HRP anti-human IgG Fab, OD450
# Text: (§1) All of the recombinant human CEACAM-1/CD66a protein (R&D systems; Cat. No. 2244-CM, HCCM1), recombinant human CEACAM-5/CD66e protein (R&D systems; Cat. No. 4128-CM, HCCM5), recombinant human CEACAM-6/CD66c protein (R&D systems; Cat. No. 3934-CM, HCCM6), recombinant human CEACAM-3/CD66d protein (Sino Biological; Cat. No. 11933-H08H, HCCM3), recombinant mouse PD-1 Fc chimeric protein (R&D systems; Cat. No. 1021-PD, mPD-1-Fc), recombinant CEACAM1-Fc (IgG4) protein (Mogam, in-house production, HCCM1-Fc), recombinant human CEACAM-1/CD66a protein Bulk (R&D systems; Cat. No. 2244-CM, HCCM1 (bulk)) and mouse CEACAM1/CD66a protein (Sino Biological; Cat. No. 50571-M08H, mouse CCM1) (2.5 μg each) were dissolved in 10 ml of PBS, respectively and dispensed into a 96-well plate (Nunc; Cat. No. 467679) at 100 μl/well, which was incubated overnight at 4° C. Thereafter, each well was treated with 300 μl of 1% (v/v) bovine serum albumin, which was incubated at 37° C. for 1 hour.
# (§2) The diluted antibodies were dispensed into each well coated with each protein at 100 μl/well, which was incubated at 37° C. for 1 hour. Then, each well was washed 3 times with a washing buffer prepared by diluting 10 μl of Tween 20 (Sigma-Aldrich; Cat. No. P9146) in 990 μl of PBS. Thereafter, 2 μl of HRP-conjugated human anti-IgG-Fab antibody (anti-human IgG Fab; Sigma; Cat. No. A0293) was diluted in 10 ml of PBS, added to the wells at 100 μl/well, and incubated for 1 hour.
# (§3) After completion of the reaction, the wells were washed three times with the washing buffer, and 100 μl of TMB solution was added to each well to induce color development. Then, 100 μl of 2 M H₂SO₄ was added to each well to stop the reaction, and the absorbance was measured at a wavelength of 450 nm.
# [3] = biological target: T3, recombinant human CEACAM-3/CD66d …; test: as above
# Text: as §1, §2, §3
binding result [1],Binder,binding result [2],binding result [3]
binds,"C18 (antibody, human IgG4 S228P, lambda, V domains shown) VH: EVQLLESGGGLVQPGGSLRLSCAASGFTFSNYDMSWVRQAPGKGLEWVSGISHSSGSKYYADSVKGRFTISRDNSKNTLYLQMNSLRAEDTAVYYCARDPLPCLIPKCSYYYAMDVWGQGTLVTVSS VL: QSVLTQPPSAPGTPGQRVTISCSGSSSNIGSNAVTWYQQLPGTAPKLLIYADSHRPSGVPDRFSGSKSGTSASLAISGLRSEDEADYYCGSWDDSLNAYVFGGGTKLTVLG",no binding (tested: 3 µg/ml (single concentration)),–
binds,"C22 (antibody, human IgG4 S228P, lambda, V domains shown) VH: EVQLLESGGGLVQPGGSLRLSCAASGFTFSDYDMSWVRQAPGKGLEWVSMIYSGSSSKYYADSVKGRFTISRDNSKNTLYLQMNSLRAEDTAVYYCAKAPLPFYFRPKSYYYAMDVWGQGTLVTVSS VL: QSVLTQPPSASGTPGQRVTISCSGSSSNIGSNNVTWYQQLPGTAPKLLIYANSHRPSGVPDRFSGSKSGTSASLAISGLRSEDEADYYCGSWDSSLNAYVFGGGTKLTVLG",–,–
binds,"C17 (antibody, human IgG4 S228P, lambda, V domains shown) VH: EVQLLESGGGLVQPGGSLRLSCAASGFTFSDYSMSWVRQAPGKGLEWVSVIYPDDGNTYYADSVKGRFTISRDNSKNTLYLQMNSLRAEDTAVYYCARGSIWWLSLIPSSYNAMDVWGQGTLVAVSS VL: QSVLTQPPSASGTPGQRVTISCSGSSSNIGNNAVNWYQQLPGTAPKLLIYANSHRPSGVPDRFSGSKSGTSASLAISGLRSEDEADYYCGAWDASLNGYVFGGGTKLTVLG",–,–
binds,"C19 (antibody, human IgG4 S228P, lambda, V domains shown) VH: EVQLLESGGGLVQPGGSLRLSCAASGFTFSGYAMSWVRQAPGKGLEWVSGIYHDGGSTYYADSVKGRFTISRDNSKNTLYLQMNSLRAEDTAVYYCARVTVLCTTYGCSSYDGMDVWGQGTLVTVSS VL: not shown",–,no binding (tested: 3 µg/ml (single concentration))

# The next lines start with the binder.
Binder,binding result [1],binding result [2],binding result [3]
"C26 (antibody, human IgG4 S228P, lambda, V domains shown) VH: EVQLLESGGGLVQPGGSLRLSCAASGFTFSGYDMSWVRQAPGKGLEWVSWISYGGGSIYYADSVKGRFTISRDNSKNTLYLQMNSLRAEDTAVYYCAKDRLPQKAVRHSYANGMDVWGQGTLVTVSS VL: QSVLTQPPSASGTPGQRVTISCSGSSSNIGNNYVTWYQQLPGTAPKLLIYADSHRPSGVPDRFSGSKSGTSASLAISGLRSEDEADYYCGAWDYSLSGYVFGGGTKLTVLG",–,no binding (tested: 3 µg/ml (single concentration)),no binding (tested: 3 µg/ml (single concentration))
"C25 (antibody, human IgG4 S228P, lambda, V domains shown, Made in ExpiHEK293F cells, protein A purified. huIgG4 is the isotype control and anti-huIgG4 the detection reagent; the isotype is not otherwise stated; also called anti-CEACAM1 antibody C25) VH: EVQLLESGGGLVQPGGSLRLSCAASGFTFSNYAMSWVRQAPGKGLEWVSVISHGGGSIYYADSVKGRLTISRDNSKNTLYLQMNSLRAEDTAVYYCARDPTKGYAPTFDYWGQGTLVTVSS VL: QSVLTQPPSASGTPGQRVTISCSGSSSNIGNNYVSWYQQLPGTAPKLLIYADSKRPSGVPDRFSGSKSGTSASLAISGLRSEDEADYYCGAWDASLNGYVFGGGTKLTVLG",–,no binding (tested: 3 µg/ml (single concentration)),no binding (tested: 3 µg/ml (single concentration))
"C15 (antibody, human IgG4 S228P, lambda, V domains shown) VH: EVQLLESGGGLVQPGGSLRLSCAASGFTFSSYSMSWVRQAPGKGLEWVSSISPNGGNKYYADSVKGRFTISRDNSKNTLYLQMNSLGAEDTAVYYCAKDPYNIYQPLFDYWGQGTLVTVSS VL: QSVLTQPLSASGTPGQRVTISCSGSSSNIGNNYVNWYQQLPGTAPKLLIYANSNRPSGVPDRFSGSKSGTSASLAISGLRSEEEADYYCGTWDASLSAYVFGGGTKLTVLG",binds,no binding (tested: 3 µg/ml (single concentration)),–
